The subject of assay [1] is COV434 AMHR-II transfected cell line. The experiment in a line: Antibody internalization (flow cytometry and immunofluorescence imaging). In kind it is cell-based. To be noted: flow cytometry; K4D24 0.5 μg/ml, 6C59 0.3 μg/ml, 3C23K 10 μg/ml. Here is the method: Antibody mediated internalization were assessed by flow cytometry analysis and by immunofluorescence imaging. Flow cytometry experiments was done on the two expressing AMHR-II cell lines: COV434 WT with low level of expression and COV434-AMHR-II transfected cell line with high level of expression. Briefly, 5×10^5 cells were incubated with 3C23K at 10 μg/ml and incubated 30 min at 4° C. After washes, DMEM/GlutaMax (Gibco) medium, cold or pre-warmed at 37° C., was added and incubated at 4° C. or 37° C. at different time points (15 min, 30 min and 60 min). Phycoerythrin-conjugated anti-human IgG antibody (1:200, Beckman-Coulter) was added for 30 min at 4° C. FACS analysis of the resuspended cells was done on a BD Accuri™ C6 flow cytometer (BD Bioscience). As depicted in FIGS. 9A and 9B, the internalization of the 3C23K observed at 37° C. is fast whatever the level of AMHR-II expression. For immunofluorescence imaging experiments, COV434 AMHR-II transfected cell line were grown on poly-D lysine coated glass coverslips overnight at 37° C. at a density of 75000 cells/cm^2. Cells were incubated with 3C23K directly labelled with Alexa Fluor 488 for 1H30 at 4° C. to carry out surface labelling. Cell surface bound antibodies were allowed to internalize by incubating cells in prewarmed medium at 37° C. At appropriate time points, coverslips were removed and cells were washed in PBS, then fixed in formaline (4%, 30 min at room temperature) and permeabilized (Triton X-100 0.5%, 5 min at room temperature). Nuclei were stained with DAPI (4′,6-diamidino-2-phenylindole) and coverslips were mounted on microscope slides and imaged with Leica DM5000 microscope (Leica Microsystems). Internalization was quantified by counting the number of visible vesicles in cell section at different incubation time using Image J software.
The internalization capacity of the K4D24 and 6C59 variants was assayed by fluorescence cytometry analysis in the same manner as in Example 8 except for the concentrations used. Due to their strong binding, K4D24 and 6C59 were used at 0.5 μg/ml and 0.3 μg/ml respectively whereas the 3C23K was used at 10 μg/ml.

Assay [2] addresses T1, extracellular domain of AMHR-II receptor (AMHR-II-ECD-Fc) (Homo sapiens, UniProt Q16671).
T1 construct: Fc (C); purchased R&D System
T1 sequence (Q16671 18-149 limits assumed): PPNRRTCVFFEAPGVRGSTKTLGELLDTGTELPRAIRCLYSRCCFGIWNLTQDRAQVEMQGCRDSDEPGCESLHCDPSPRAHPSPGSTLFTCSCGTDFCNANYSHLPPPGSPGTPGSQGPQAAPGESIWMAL
As to the kind of experiment: ELISA binding to the extracellular domain of AMHR-II receptor. The method, then: The binding capacity of the anti-AMHR-II 3C23K antibodies was evaluated by ELISA. ELISA plates (96 wells, Maxisorp, NUnc) were coated overnight at +4° C. with 50 ng per well of AMHR-II-ECD-Fc (R&D System). Coated ELISA plates were blocked with PBS-BSA 4% for 2 hours at 37° C. and washed three times with PBS-Tween20 0.05%. […] The bound anti-AMHR-II antibodies were detected by adding HRP-conjugated F(ab′)2 goat anti-human F(ab′2) fragment specific (Interchim) diluted at 1:10000 and incubated for one hour at 37° C. Revelation was done with TMB (Sigma) and the reaction was stopped by adding H2SO4 1N (v:v). Absorbances were measured at 450 nm and binding data curves were analysis using GraphPad Prism.
The binding capacity of the anti-AMHR-II variants K4D24 and 6C59 antibodies was assayed by ELISA assay as the same manner as in example 3 with only minor changes. ELISA plates (96 wells, Maxisorp, NUnc) were coated overnight at +4° C. with 50 ng per well or 10 ng per well of AMHR-II-ECD-Fc (R&D System). K4D24, 6C59 and 3C23K were serially diluted from 4 μg/ml to 1 ng/ml. Absorbances were measured at 450 nm and binding data curves were analysis using four-parameter nonlinear regression fit from GraphPad Prism. FIGS. 15A-15B show the results.
(In an ELISA, binding on a coated surface is turned into a signal by an enzyme label.)

The target in assay [3] is T2, AMHR2 receptor expressed at the surface membrane of the COV434 WT cell line (Homo sapiens, UniProt Q16671).
T2 construct: assayed on the low expressing AMHR-II COV434 WT cell line; endogenous in cells; host or cells: COV434 WT
T2 sequence (Q16671 18-573): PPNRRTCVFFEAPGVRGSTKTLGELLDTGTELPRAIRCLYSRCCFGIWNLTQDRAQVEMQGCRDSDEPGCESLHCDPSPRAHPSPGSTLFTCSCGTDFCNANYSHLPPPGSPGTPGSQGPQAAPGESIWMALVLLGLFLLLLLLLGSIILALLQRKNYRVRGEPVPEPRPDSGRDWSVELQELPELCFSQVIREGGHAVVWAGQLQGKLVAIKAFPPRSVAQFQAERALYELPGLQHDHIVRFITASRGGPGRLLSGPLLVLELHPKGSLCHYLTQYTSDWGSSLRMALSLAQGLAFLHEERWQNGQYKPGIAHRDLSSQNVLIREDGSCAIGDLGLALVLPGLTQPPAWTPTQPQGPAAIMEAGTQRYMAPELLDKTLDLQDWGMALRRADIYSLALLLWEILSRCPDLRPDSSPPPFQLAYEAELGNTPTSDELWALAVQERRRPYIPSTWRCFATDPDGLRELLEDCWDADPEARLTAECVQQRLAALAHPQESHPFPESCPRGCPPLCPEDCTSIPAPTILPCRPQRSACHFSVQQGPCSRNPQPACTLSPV
The experiment in a line: FACS binding to the low expressing COV434 WT cell line. To be noted: variants 25, 10, 5 μg/ml; 3C23K 50, 25, 10 μg/ml. The method, then:
The COV434 AMHR-II transfected and the COV434 WT cell lines were maintained in DMEM/GlutaMax (Gibco) supplemented with 10% FBS, penicillin 100 U/ml and Streptomycin 100 μg/ml. Geneticin at 666 μg/ml was added for the COV434 AMHR-II transfected cell line. […] After washes, Phycoerythrin-conjugated anti-human IgG antibody (1:200, Beckman-Coulter) was added for 1 hour at room temperature. FACS analysis of the resuspended cells was done on a BD Accuri™ C6 flow cytometer (BD Bioscience).
The binding capacity of the anti-AMHR-II antibody variants K4D24 and 6C59 to the AMHR-II expressing cell lines was evaluated by flow cytometry analysis in the same manner as example 4. FACS analysis with COV434-AMHR-II transfected cell line is described in FIG. 16. The Kapparent of the K4D24 and 6C59 variants were improved by a factor of 20 and 40 fold respectively as compared to the 3C23K (0.098 μg/ml and 0.05 μg/ml versus 2.2 μg/ml). The binding capacity of these variants was also assayed on the low expressing AMHR-II COV434 WT cell line. In this setting the binding was evaluated with three concentrations of variants (25, 10 and 5 μg/ml) and three concentrations of 3C23K (50, 25 and 10 μg/ml).
For orientation: In flow cytometry, cells or beads pass a laser one at a time.

The mark [4] stands for this setting: coating 10 ng/well AMHR-II recombinant protein.
[5] abbreviates: coating 50 ng/well AMHR-II recombinant protein.

Changes are numbered by the printed parent chain. In names and notes the source's numbering stands. Entries after “also recorded” stand apart in the source; their conditions may differ.

B1: K4D24: 3C23K variant; VH H-Q1R (SEQ ID NO: 22), VL SEQ ID NO: 36 (antibody, V domains shown)
VH: RVRLVQSGAEVKKPGASVKVSCKASGYTFTSYHIHWVRQAPGQRLEWMGWIYPGDDSTKYSQKFQGRVTITRDTSASTAYMELSSLRSEDTAVYYCTRGDRFAYWGQGTLVTVSS
VL: DIQMTQSPSTLSASVGDRVTITCRASSSVRYIAWYQQKPGKAPKLLTYPTSSLKSGVPSRFSGSGSGTEFTLTISSLQPDDFATYYCLQWSSYPWTFGGGTKVEIK
modifications: K4D-24/6C59; 3C23K
As for B1, the “internalization compared with 3C23K” value in assay [1] is “retain the same internalization potential”. In addition, the “binding compared with 3C23K” value in assay [2] (setting [4]) is given as “Improved binding; also recorded: stronger”; in assay [2] (setting [5]), “no major difference of binding”. In addition, in assay [3], the “binding compared to 3C23K on the COV434 WT cell line” value is on record as “strongly improve the level of detection; also recorded: stronger binding”.

B2: 6C59: 3C23K variant; VH H-Q1R (SEQ ID NO: 22), VL L-S27P, L-S28P (SEQ ID NO: 40) (antibody, V domains shown)
VH: B1 VH
VL: B1 VL with S27P, S28P
modifications: K4D-24/6C59; LS27P, L-S28P
Regarding B2, the “internalization compared with 3C23K” value in assay [1] is reported as “retain the same internalization potential”. Moreover, the figures for the “binding compared with 3C23K” value in assay [2] (setting [4]) and in assay [2] (setting [5]) were “Improved binding; also recorded: stronger” and “no major difference of binding”, respectively. For the same molecule, the “binding compared to 3C23K on the COV434 WT cell line” value in assay [3] is “strongly improve the level of detection; also recorded: stronger binding”.

Source of the values: US10509035B2, “Antibodies, antibody drug conjugates and methods of use” (GAMAMABS PHARMA, priority 2015, dated 2019).
